Source: US20070065439A1
Residue numbers refer to the chain shown, from its start.

B1: 9.11.1 (antibody, human IgG4, V domains shown)
VH: QVQLVESGGGVVQPGRSLRLSCAASGFTFSVYGMHWVRQAPGKGLEWVAVIWYDGNNKYYVDSVKGRFTISRDNSKNTLYLQLNSLRAEDTAVYYCARERSSSWYFDYWGQGTLVTVSS
VL: QSALTQPASVSGSSGQSITISCTGTSSDVGSYNLVSWYQQHPGKAPKLMIYEVSKRPSGVSNRFSGSKSGNTASLTISGLQAEDEADYYCCSYAGNSNWVFGGGTKLTVL
B2: 8.50.1 (antibody, human IgG4, V domains shown)
VH: QVQLQESGPGLVKPSETLSLTCTVSGGSISSDYWSWIRQPAGKGLEWIGRFYNSGRTNYRPSLKSRITMSVDTSKNQFSLKLSSVTAADTAVYYCARDMYSGRGNWYFDLWGRGTLVTVS
VL: SYELTQPPSVSVSPGQTARITCSGDALPKKYAYWYQQKSGQAPVLVIYEDSKRPSGIPERFSGSSSGTMATLTISGAQVEDEADYYCYSTDSSDNHRVFGGGTKLTVL
B3: 9.31.1 (antibody, human IgG4, V domains shown)
VH: QVQLVESGGGLVKPGGSLRLSCAASGFTFSDYYMSWIRQAPGKGLEWVSYIRSSGSTIYYADSVKGRFTISRDNAKNSLYLQMNSLRAEDTAVYYCARTPYSGRYHWYFDLWGRGTLVTVS
VL: B2 VL with K29I, Q37H, D94G
B4: 9.19.1 (antibody, human IgG4, V domains shown)
VH: QVQLVESGGGVVQPGRSLRLSCAASGFTFNNYGMHWVRQAPGKGLECVAVIWYDGGNKYYADSVKGRFAISRDNSKNTLYLQMNSLRAEDTAVYYCTAVTKLNYYYGMDVWGQRTTVTVS
VL: QSALTQPASVSGSPGQSITISCTGTSSDVGGYNYVSWYQQHPGKAPKFMIYEVSNRPSGVSNRFSGSKSGNTASLTISGLQAEDEADYYCSSYTSSSILVFGGGTKLTVL
B5: 5.5.1 (antibody, IgG4, V domains shown)
VH: B1 VH with V31S, N56D, V61A, K65Q, L83M, A88P
VL: B1 VL with S14P, V60I, N96S, N98T
B6: 9.26.1 (antibody, human IgG4, V domains shown)
VH: B4 VH with R114G
VL: B4 VL with F48L
B7: 9.2.1 (antibody, human IgG4, V domains shown)
VH: B4 VH with K101T, N103Y, R114G
VL: B4 VL with F48L
B8: 8.18.1 (antibody, human IgG4, V domains shown)
VH: QVQLQESGPGLVKPSETLSLTCTVSGGSVSSGGYYWSWIRQPPGKGLEWIGYFYYSGSPNYNPSLKRRIAISVDTSKNQFSLRLSSVTAADTAVYYCARDPMHYYGMDVWGQGTTVTVSS
VL: SSELTQPPSVSVFPGQTANITCSGDKLGDKFACWYQQKPGQSPVLVIYRDNKRPSGIPERFSGSNSGNTATLTISGTQAMDEADYYCQAWDSSTYVVFGGGTKLTVL
B9: 6.26.1 (antibody, human IgG4, V domains shown)
VH: QLQLQESGPGLVKPSETLSLTCTVSGGSISRSSYYWGWIRQPPGKGLEWMGNIYYSGSTHYNPSLKSRVTISVDTSKNQFSLKLSSVTAADTAVFYCAKGREYISSSGYGMDVWGQGTTVTVS
VL: SYELTQPPSVSVSPGQTASITCSGDKLGNKYVCWYQQKPGQSPVLVIFQDSRRPSGIPERFSGSNSGNTATLTISGTQAMDEADYYCQAWDTSTVIFGGGTKLTVL
B10: 4.20.1 (antibody, human IgG4, V domains shown)
VH: QVQLVESGGGVVQPGRSLRLSCAASGFTFSNYGMNWVRQAPGKGLEWVAVIWYDGNNKSEADSVKGRFTISRDNSKNTLYLQMNSLRAEDTAVYYCARDSRSGPFDYWGQGTLVTVSS
VL: EIVLTQSPDFQSVTPKEKVTITCRASQSIGSSLHWYQQKPDQSPKLLIKFASQSFSGVPSRISGSGSGTDFTLTINSLEAEDAATYYCHQSSSLPFTFGPGTKVDIK
B11: 5.36.1 (antibody, human IgG4, V domains shown)
VH: QVQLQQSGPGLVKPSQTLSLTCAISGDSVSSNSAAWNWIRQSPSRGLEWLGRTYYRSKWYNDYAVSVKSRITINPDTSKNQFSLQLNSVTPEDTAVYYCAREEQQLVRYYYYYGMDVWGQGTTVTVS
VL: DIVMTQTPLSLSVTPGQPASISCKSSQSLLHSDGRTYLYWYLQRPGQPPQLLIYEASYRFSGVPDRFSGSGSGTDFTLKISRVEAEDVGIYYCMQSIQLPRTFGQGTRLEIK

Biological target: Cynomolgus monkey IL-1β (cynomolgus monkey)
Assay: Biacore low-res, mAb captured, cyno IL-1β 117 nM, 25C

Sequence of Cynomolgus monkey IL-1β (cynomolgus monkey) (P48090 117-269 limits assumed): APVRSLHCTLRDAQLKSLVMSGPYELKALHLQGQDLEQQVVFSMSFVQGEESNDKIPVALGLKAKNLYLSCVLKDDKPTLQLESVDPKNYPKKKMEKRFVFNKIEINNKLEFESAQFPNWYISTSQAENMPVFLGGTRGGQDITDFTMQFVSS

Binder	Kd [nM]	koff [s⁻¹]	kon [M⁻¹ s⁻¹]
B1	0.8	0.00027	330000
B2	2.5	0.0012	470000
B3	5	0.0015	300000
B4	0.5	0.00012	260000
B5	4.6	0.0011	240000
B6	1.3	0.0002	150000
B7	4.5	0.0014	310000
B8	0.8	9.2e-05	110000
B9	1.1	0.00031	270000
B10	6.3	0.005	800000
B11	3.4	0.00072	210000
